Assay results taken from article PMC12814185, “Receptor-Mediated Shuttling of a D‑Amino Acid Peptide Achieves High Nanomolar Cytosolic Concentrations” (Journal of the American Chemical Society, 2025).

How the values were obtained:
[1] = target: T1, chemokine-like receptor 1 (CMKLR1), Q99788
T1 chain: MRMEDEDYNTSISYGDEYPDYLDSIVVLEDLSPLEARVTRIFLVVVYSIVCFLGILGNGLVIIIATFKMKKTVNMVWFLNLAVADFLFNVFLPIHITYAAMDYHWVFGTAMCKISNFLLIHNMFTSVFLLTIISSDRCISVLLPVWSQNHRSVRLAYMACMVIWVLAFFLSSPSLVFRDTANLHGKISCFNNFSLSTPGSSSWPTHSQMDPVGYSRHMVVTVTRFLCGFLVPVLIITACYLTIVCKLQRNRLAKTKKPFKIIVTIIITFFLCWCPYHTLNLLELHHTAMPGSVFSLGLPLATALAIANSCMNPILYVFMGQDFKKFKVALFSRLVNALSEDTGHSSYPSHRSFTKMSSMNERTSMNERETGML

[2] = target: recombinant human GST-MDM2 (human), Q00987; assay: fluorescence polarisation
Sequence of recombinant human GST-MDM2 (human), Q00987 (Q00987 whole entry): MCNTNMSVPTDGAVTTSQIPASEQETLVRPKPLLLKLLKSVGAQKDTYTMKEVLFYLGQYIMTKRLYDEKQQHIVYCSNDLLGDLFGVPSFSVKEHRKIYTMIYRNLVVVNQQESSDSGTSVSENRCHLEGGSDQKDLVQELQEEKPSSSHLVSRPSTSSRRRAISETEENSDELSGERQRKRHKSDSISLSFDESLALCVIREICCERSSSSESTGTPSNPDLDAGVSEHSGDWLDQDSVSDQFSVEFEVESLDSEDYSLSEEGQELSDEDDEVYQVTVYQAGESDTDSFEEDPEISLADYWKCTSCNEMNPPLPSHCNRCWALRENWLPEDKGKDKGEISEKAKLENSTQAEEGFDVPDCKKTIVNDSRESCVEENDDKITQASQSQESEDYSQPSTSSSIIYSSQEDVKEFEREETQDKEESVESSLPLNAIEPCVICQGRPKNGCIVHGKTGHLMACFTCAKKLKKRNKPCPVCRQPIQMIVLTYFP

B1: Cy5-hsLMWP-PMIγ-cC9 (peptide)
chain: GSVSHHHHHHGGHHHHKDWWPLAFEALLRGEV
modifications: (EG)3 spacer between hsLMWP and D-lysine; D-lysine at 17 carrying Cy5-(EG)3 on its side chain; dwwplafeallr (residues 18-29) are D-amino acids; citrulline at 33; (EG)3 spacer between Cit and Pra; propargylglycine (Pra) at 34, joined to the azidolysine of cC9 by CuAAC; C-terminal amide | N-terminal acetyl; azidolysine at 1 (joined to Pra of the other chain by CuAAC); D-homocysteine at 5 in a …
Question: What does the source list for B1?
Answer: Ca2+ flux assay, EC50 [1]: 220 nM; Kd [2]: 90 nM
